Measurements taken from patent US20160326230A1, “HUMAN RELAXIN ANALOGUE, PHARMACEUTICAL COMPOSITION OF SAME, AND PHARMACEUTICAL APPLICATION OF SAME” (SHANGHAI HENGRUI PHARMACEUTICAL CO., LTD., priority 2013, published 2016).

Legend:
[1] = In vivo half-life measurement in rats (Human relaxin-2 ELISA of blood samples); parameters: species or system Sprague Dawley (SD) rats; conditions: SD rats, caudal vein injection, 0.5 mg/kg/rat
Procedure: A total of 12 experimental Sprague Dawley (SD) rats (6 male and 6 female) were used in this test (purchased from SINO-BRITSH SIPPR/BK LAB. ANIMAL LTD., CO, Certificate No.: SCXK (Shanghai) 2008-0016, 160-180 g), and the maintenance environment was SPF grade. SD rats were kept for 3 days in the laboratory environment, at a temperature of 20-25° C., with a humidity of 40-60%. The wild-type human relaxin analog 800828 (WT, prepared in Example 29) with the original sequence was used as a positive control in this test.
Rats were randomly divided into 3 groups, with 4 rats in each group, half males and half females. Control (saline) and human relaxin (analog 800814, WT 800828) were injected into the caudal vein of the rats (4 rats/sample) with a dose of 0.5 mg/kg/rat. Blood samples were taken from the rats' orbital sinuses at 0 h, 0.03 h, 0.08 h, 0.25 h, 0.5 h, 1 h, 1.5 h, 2 h, 4 h, 6 h and 8 h after the injections. Blood samples were centrifuged, and the supernatant was collected and stored at −20° C. for further analysis. After blood collection, the content of relaxin in the blood samples was detected using the Human relaxin-2 Quantikine ELISA Kit (R&D). The T1/2 of the test drug was calculated by T1/2 formula and EXCEL.

ICR mice = assay: In vivo biological activity: pubis width in estradiol-primed female ICR mice; conditions: s.c. 6 μg/100 μl/mouse, 40 hours later, ratio to solvent control group (=1)
Procedure: ICR mice (female, purchased from SINO-BRITSH SIPPR/BK LAB. ANIMAL LTD., CO, Certificate No.: SCXK (Shanghai) 2008-0016, 18-20 g) were used in this test, and the maintenance environment was SPF grade. After their purchase, ICR mice were kept in the laboratory environment for two weeks in the following conditions: illumination: 12/12-hour light/dark cycle regulation, temperature: 20-25° C.; humidity: 40-60%. The wild-type human relaxin analog 800828 (WT, prepared in Example 29) with the original sequence was used as a positive control in this test.
One week before the experiment, each female ICR mouse was subcutaneously injected with 5 μg/100 μ1/animal of β-estradiol (water-insoluble, slightly soluble in oil), which was mixed with olive oil. Six days later, ICR mice with a body weight less than 22 g were excluded, and the rest of the animals were equally divided into groups according to body weight. The animals were subcutaneously injected with relaxin 800828 (WT) ([…]/100 μl/mouse), 800814 (6 μg/100 μl/mouse) or 0.1% benzopurpurine 4B saline (solvent control group). Relaxin 800828 (WT) and 800814 were dissolved in physiological saline containing 0.1% benzopurpurin 4B. 40 hours later, the pubic bones were removed, skin and muscle were removed from the bone, and the pubis width was measured under microscope. […]

THP-1 cells = assay: In vitro bioactivity assay: cAMP production induced in THP-1 cells (cAMP ELISA); format: cell-based; conditions: 30 min incubation, forskolin + IBMX, average of three experiments, listed as 800828 (WT)
Procedure: The disclosed human relaxin analog (800814) binds to the receptor on THP-1 cells, and induces the production of cAMP in THP-1 cells. To determine the in vitro activity of human relaxin analog (800814), the generation of cAMP was detected. The wild-type human relaxin analog 800828 (WT) (prepared in Example 29) with the original sequence was used in this test as a positive control.
The cells used in the experiments, i.e., THP-1 (ATCC, Product Number: TIB-202™), were cultured in suspension at 37° C., 5% CO2, and used for experiments or passage when the cells were preferably in the logarithmic growth phase. THP-1 cells can be passaged every 2-3 days, with a dilution ratio of 1:3 to 1:4. The medium was RPMI1640, with 0.05 mM b-mercaptoethanol and 10% FBS. On the day of the experiment, THP-1 cells in logarithmic growth phase were collected by centrifugation, and resuspended in DMEM/F12. The cell density was adjusted to 2×10^6 cells/ml, and the cells were seeded in a 96-well plate (50 μl each well) and incubated in a 37° C. incubator for 30 minutes. […] The content of cAMP was detected with a CAMP ELISA KIT (CELL BIOLABS).
Data obtained in the above experiment was fit to a nonlinear curve using Graphpad Prism, and the EC50 value (ng/ml) of CAMP induced in the THP-1 cells by human relaxin analog (800814) was determined.

Row | Compound | T1/2 [1] | half-life ([1]; both sexes, Sprague Dawley, supernatant of centrifuged blood, iv) | relative pubic width (ICR mice) | EC50 of cAMP induced in THP-1 cells (THP-1 cells)
1 | CC[C@H](C)[C@@H]1NC(=O)[C@H](C)NC(=O)[C@H]([C@@H](C)CC)NC(=O)[C@H](CCC(N)=O)NC(=O)[C@H](C)NC(=O)[C@H](CCCNC(=N)N)NC(=O)[C@H](C(C)C)NC(=O)[C@H](CC(C)C)NC(=O)[C@H](CC(=O)O)NC(=O)[C@H](CCCNC(=N)N)NC(=O)CNC(=O)[C@@H](NC(=O)[C@H](CC(C)C)NC(=O)[C@H](CCCCN)NC(=O)[C@@H](NC(=O)[C@@H](NC(=O)[C@H](CCC(=O)O)NC(=O)[C@H](CCC(=O)O)NC(=O)[C@H](CCSC)NC(=O)[C@H](Cc2c[nH]c3ccccc23)NC(=O)[C@H](CO)NC(=O)[C@@H](N)CC(=O)O)C(C)C)[C@@H](C)CC)CSSC[C@@H]2NC(=O)[C@@H](NC(=O)[C@H](CCCCN)NC(=O)[C@H](CC(N)=O)NC(=O)[C@H](C)NC(=O)[C@H](CC(C)C)NC(=O)[C@H](C)NC(=O)[C@H](CO)NC(=O)[C@H](Cc3ccc(O)cc3)NC(=O)[C@H](CC(C)C)NC(=O)[C@@H](N)CC(=O)O)CSSC[C@H](NC(=O)CNC(=O)[C@H](C(C)C)NC(=O)[C@H](Cc3c[nH]cn3)NC2=O)C(=O)N[C@@H]([C@@H](C)O)C(=O)N[C@@H](CCCCN)C(=O)N[C@@H](CCCNC(=N)N)C(=O)N[C@@H](CO)C(=O)N[C@@H](CC(C)C)C(=O)N[C@@H](C)C(=O)N[C@@H](CCCNC(=N)N)C(=O)N[C@@H](Cc2ccccc2)C(=O)N[C@H](C(=O)O)CSSC[C@@H](C(=O)NCC(=O)N[C@@H](CCSC)C(=O)N[C@@H](CO)C(=O)N[C@H](C(=O)N[C@@H](Cc2c[nH]c3ccccc23)C(=O)N[C@@H](CO)C(=O)O)[C@@H](C)O)NC1=O [relaxin 800814] | does not affect its half-life | 52.8 min | – | –
2 | relaxin 800828: wild-type human relaxin with the original sequence, expressed in E. coli, refolded and digested; positive control; precursor SEQ ID NO: 23 | 52.2 min | – | 1.24 | 3.05 ng/mL
